Positions count from the first letter of the chain named. One block for each binder: values may come before it.
Legend:
[1] = molecular target: T1, mouse TPBG (full length, on cells) (mouse, UniProt Q9Z0L0 32-426); test: FACS on CHO-K1-mTPBG cells
T1 construct: whole, on cells; On transfected CHO-K1 cells; also called mTPBG; CHO-K1-mTPBG
T1 sequence (looked up): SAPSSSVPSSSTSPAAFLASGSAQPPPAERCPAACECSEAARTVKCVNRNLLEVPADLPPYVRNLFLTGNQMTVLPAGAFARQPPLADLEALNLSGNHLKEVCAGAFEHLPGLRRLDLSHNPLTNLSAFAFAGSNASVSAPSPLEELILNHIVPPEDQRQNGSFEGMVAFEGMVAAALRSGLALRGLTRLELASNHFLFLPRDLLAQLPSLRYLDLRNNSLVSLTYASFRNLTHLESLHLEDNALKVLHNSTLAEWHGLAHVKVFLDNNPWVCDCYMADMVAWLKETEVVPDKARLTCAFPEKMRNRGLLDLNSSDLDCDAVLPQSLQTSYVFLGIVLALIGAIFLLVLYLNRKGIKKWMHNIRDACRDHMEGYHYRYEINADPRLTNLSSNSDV
From the text: The stable cell lines CHO-k1-hTPBG, CHO-k1-cTPBG, CHO-k1-mTPBG (i.e. the CHO-k1-hTPBG 3A2F1, CHO-k1-cTPBG 3F13G4 and CHO-k1-mTPBG 3A3 shown in table 7) and CHO-K1 cells were expanded to a 90% of confluency in T-75 cell culture flasks, the culture medium were removed, and cells were then rinsed twice with HBSS buffer (Hanks Balanced Salt Solution, purchased from Invitrogen) and lysed with enzyme-free cell dissociation buffer (Versene solution purchased from Life technology) and harvested. Harvested cells were rinsed with HBSS buffer twice and counted before diluting with HBSS buffer to 2×10⁶ cells /mL, and 10% goat serum blocking buffer was then added, wherein the percentage is the mass percentage. Cells were incubated on ice for 30 min, and then washed twice with HBSS buffer by centrifugation. The harvested cells were resuspended with FACS buffer (HBSS+1% BSA, wherein the percentage is mass percentage) to a concentration of 2×10⁶ cells /mL. 100 μL per well of the cells was aliquoted to 96-well FACS reaction plates, and 100 μL per well of test sample—the purified TPBG antibody obtaining from Embodiment 2 was added before incubating on ice for 2 h. The plate was washed with the FACS buffer twice by centrifugation, and 100 μL per well of fluorescence (Alexa 488) labeled secondary antibody (purchased from Invitrogen) was then added and incubated on ice for 1 h. The plate was washed with the FACS buffer for three times by centrifugation, follow by resuspending in 100 μL of fixation buffer (4% (v/v) paraformaldehyde). Cells were washed with FACS buffer twice after 10 min, follow by resuspending with 100 μL of FACS buffer. The results were measured and analyzed by FACS (FACS Calibur, purchased from BD). Data analysis was performed by software (CellQuest) to obtain mean fluorescence intensity (MFI) of the cells, follow by calculating EC50 value by software (GraphPad Prism) analysis and data fitting. The analysis results were shown in Table 8 and FIGS. 7-10, and data in FIGS. 7-10 show the mean fluorescence intensity (MFI) of cells.

[2] = molecular target: T2, biotinylated recombinant TPBG protein (Homo sapiens (Human), UniProt Q13641 32-355, Biotinylated; the number and positions of the biotin labels are not stated and the letters do not carry them.); test: competitive ELISA; row antibody 5 ug/mL; competitor: coated 52C9E9F6
T2 sequence: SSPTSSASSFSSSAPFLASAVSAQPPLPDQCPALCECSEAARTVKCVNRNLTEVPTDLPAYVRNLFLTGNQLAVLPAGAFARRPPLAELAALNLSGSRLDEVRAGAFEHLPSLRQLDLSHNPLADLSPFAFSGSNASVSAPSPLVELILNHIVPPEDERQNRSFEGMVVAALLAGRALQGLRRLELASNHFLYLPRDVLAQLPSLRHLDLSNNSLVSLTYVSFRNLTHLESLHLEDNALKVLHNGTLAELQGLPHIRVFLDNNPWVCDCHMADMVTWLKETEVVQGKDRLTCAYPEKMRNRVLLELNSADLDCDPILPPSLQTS
Procedure: The purified antibodies to be tested were diluted to 1 μg/mL using PBS, and coated with high-adsorption of 96-well microplates at […]. After overnight coating at 4[…], 250 μL of blocking buffer (PBS containing 0.01% (v/v) Tween20 and 1% (w/w) BSA) was added to block coating at room temperature for 1 h, and 0.05 μg/mL of biotinylated recombinant TPBG protein was added to each well. Meanwhile, 5 μg/mL final concentration of competitive antibodies, i.e. the purified antibodies obtained from Embodiment 2 with the clone number of 12B12C7C3, 5G4H10G5, 37H9C5G2, 39A11G5F2, 52C9E9F6, 28D4E6A9, 36A10D8B12, 99E12C7H1, 103E2E9C2 and 106D5G3D10 were added and incubated at 25-37° C. for 1-2 h. The plates were washed three times with plate-washing buffer (PBS containing 0.01% (v/v) Tween20) and HRP (horseradish peroxidase)-labeled streptavidin (purchased from Sigma) was added. After incubating at 37° C. for 0.5 h, the plates were washed three times with plate-washing buffer (PBS containing 0.01% (v/v) Tween20), and 100 μL of TMB substrate was added to each well and the plates were further incubated at room temperature for 30 min prior to adding 100 μL of stop buffer (1.0N HCl) to each well. A₄₅₀ₙₘ values were read using an ELISA microplate reader (SpectraMax 384plus purchased from Molecular Device) and results were shown in FIG. 6. The higher the values of the competition rate, the closer the antigen surface of the two antibodies are.

- binding result [1]: no binding
- competition rate [2]: 0%
B1: 106D5G3D10 (antibody, V domains shown)
VH: EVQLVESGGGLVKPGGSLKLSCAASGFTFSDYGMHWVRQAPEKGLEWVGYISSGTYVVYYADTVKGRFTISRDNAKNTLFLQMTSLRSEDTAIYYCSTYGSNPFDYWGQGTTLTVSS
VL: QLVLTQSPAIMSASPGEKVTITCSATSSVSSMHWFQQKPVTSPKLWIYSTSNLASGVPTRFSGSGSGTSYSLTISRMEAEDAATYYCQQRSGYPPIFTFGSGTKLEIK
notes: Mouse hybridoma antibody purified from culture supernatant; also called TPBG antibody; lead antibody

- binding result [1]: no binding
- competition rate [2]: 0%
B2: 103E2E9C2 (antibody, V domains shown)
VH: EVQLQQSGPVLVKPGASVKMSCEASGYSFIDYYMSWVKQSRGRSLEWIGVFNPYSGEIIYNQKFKGKATLTVDKSSSTAYMELSSLTSEDSGVYSCARLRISYYAIDYWGQGTSVAVSS
VL: ENVLTQSPAIMSASPGEKVTMTCRATSSVSSGHFHWYQQKSGASPKVWIYSTSNLASGVPARFSGSGSGTSFSLTISSVEAEDVATYFCQQYSGYPLTFGGGTKLEIK
notes: as for B1

- EC50 [1]: 9.07 nM
- competition rate [2]: 19%
B3: 5G4H10G5 (antibody, V domains shown)
VH: EVQLVESGGDLVQPGGSLKLFCAASGFTFSTYGLSWVRQTPDKRLELVATITNNDGSAYYPDSVKGRFTISRDKAKNTLFLQMTSLKSEDTAMYYCARETGFGSSYLFDYWGQGTLVTVSA
VL: NIVMTQTPKFLLVSAGDRVTITCKASQSVSNDVAWYQQKPGQSPKLLIYFATNRYTGVPNRFTGSGYGTEFTFTISSVQAEDLAVYFCQQDYSSPTFGGGTKLEIK
notes: as for B1

- EC50 [1]: 11.1 nM
- competition rate [2]: 5%
B4: 37H9C5G2 (antibody, V domains shown)
VH: QVQLQQSDAELVRPGASVKMSCKVSGYTFTDHTIHWMKQRPEQGLEWIGYIYPRDGSGTYNEKFKGKATLTADKSSSTAYMQLNSLTSEDSAVYFCARDGSSHYWYFDVWGTGTTVTVSS
VL: DIQMTQSPASLSASVGETVTITCRASEIIYNYLAWYQQKQGKSPQLLVYNAKTLAEGVPSRFSGSYSGTQFSLNINSLQSEDFGIYYCQHHHDTPLTFGAGTKLDLK
notes: as for B1

- EC50 [1]: 1.88 nM
- competition rate [2]: 95%
B5: 39A11G5F2 (antibody, V domains shown)
VH: QVQLQQSGAELMKPGASMRLSCKATGYTFTGYWLEWIKRRPGHGLEWIGEILPGRGSTNYNEKFKGKATFTAETSSNTAYMQLTSLTTEDSAIYYCARGGRDFDNWGQGTTLTVSS
VL: DIQMTQSTSSLSASLGDRVTISCSASQGINNHLNWYQQKPDGTVKLLIYYTSSLHSGVPSRFSGSGSGTDYSLTISNLEPEDIAIYYCQQFSKLPYTFGGGTKVEMK
notes: as for B1

- binding result [1]: no binding
- competition rate [2]: 97%
B6: 52C9E9F6 (antibody, V domains shown)
VH: QVQLQQSGAELMKPGASVKLSCKATGYTFTGYWIEWIKQRPGHGLEWIGEILPGRGSTDYNEKFKGKATFTADTSSNTAYMQLSSLTTEDSAIYYCTRGRLDFTYWGQGTLVTVSA
VL: B5 VL with S7T, N30R, H32Y, I85T, F91Y, L94V, Y96W, V104L, M106I
notes: as for B1

- binding result [1]: no binding
- competition rate [2]: 0%
B7: 28D4E6A9 (antibody, V domains shown)
VH: DVQLVESGGGLVRPGGSLKLSCAASGFTFSNYVMSWARQSPEKRLEWVAEISTGGSHTYYSDTVTGRFTISRDNAKKALYLEMSSLRSEDTAIYYCIMFYYGSSYSMDYWGQGTSVTVSS
VL: DIQMTQSTSSLSASLGDRITISCRASQDIRNYLNWYQQKPDGTVKLLIYHTSRLHSGVPSRFSGSGSGTDYSLTISNLEQEDIATYFCQQGDTLPLTFGAGTRLELK
notes: as for B1

- binding result [1]: no binding
- competition rate [2]: 23%
B8: 36A10D8B12 (antibody, V domains shown)
VH: DVQLQESGPGMVKPSQSLSLTCTVTGYSITSGYDWHWIRHFPGNKLEWMGYISYSGNTNYNPSLKSRISITHNTSKNHFFLRLNSVTTEDTATYYCARGYGNWDAMDYWGQGTSVTVSS
VL: DIVMTQSQKFMSTSVGDRVSVTCKASQIVDTNVAWYQQKPGQSPKALISSASYRYSGVPDRFTGSGSGTDFTLTISNVQSEDLAEYFCQQYNSYPLTFGAGTKLELT
notes: as for B1

- binding result [1]: no binding
- competition rate [2]: 4%
B9: 12B12C7C3 (antibody, V domains shown)
VH: DVQLVESGGGLVQPGGSRKLSCAASGFTFSNFGMHWVRQAPEKGLEWVAYISSGSTSFYYADTVKGRFTISRDNPKNTLFLQMTSLRSEDTAMYYCSRTNSLLRGFFDAWGAGTTVTVSS
VL: DIVLTQSPASLAVSLGQRATISCRASQSVSSSSYTYLHWYQQKPGQPPKLLIKSASNLESGVPARFSGTGSGTDFTLNIHPVEEEDTATYYCQHSWEIPLTFGAGTKLELK
notes: as for B1

- binding result [1]: no binding
- competition rate [2]: 0%
B10: 99E12C7H1 (antibody, V domains shown)
VH: QIQLVQSGPELKKPGETVKISCKPSGYTFTAYGLSWVKQAPGQGFQWMGWINTYSGVPTYTDDFKGRFAFSLETSAGTASLQITNLKNEDTATYFCARSSIPPFEYWGPGTTLTVSS
VL: SFVMTQSPKFLLVSVGDRVTITCKASQSVSNDVAWYQQKPGQPPRVLIYFASNRYTGVPDRFTGSGYGTDFTFTISTVQAEDLALYFCQQDYSSPWTFGGGTKLEIK
notes: as for B1
